Reference: patent US20160195533

Tests used:
[1] = molecular target: Flag-tagged Snail1 (pCMV-Tag2B N-terminal Flag-tagged Snail1 expression vector, Addgene)
[2] = molecular target: Strep-tagged Snail1 (pEXPR-IBA105-Snail1)
Sequence of Strep-tagged Snail1 (pEXPR-IBA105-Snail1) (chain, as listed by the source): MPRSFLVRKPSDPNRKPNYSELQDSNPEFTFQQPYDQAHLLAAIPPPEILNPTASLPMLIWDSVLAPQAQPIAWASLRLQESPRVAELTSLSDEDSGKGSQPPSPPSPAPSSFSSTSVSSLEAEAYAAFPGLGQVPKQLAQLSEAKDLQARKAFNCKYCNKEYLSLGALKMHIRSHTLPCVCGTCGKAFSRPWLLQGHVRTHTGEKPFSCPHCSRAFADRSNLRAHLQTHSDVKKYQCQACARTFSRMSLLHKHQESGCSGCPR

Sequence of Flag-tagged Snail1 (pCMV-Tag2B N-terminal Flag-tagged Snail1 expression vector, Addgene) (chain, as listed by the source): as above

Protein	Snail1 stability, anti-Flag immunoblot (HEK293T) [1]	also measured
Strep-tagged ERS-WHEP domain of EPRS (pEXPR-IBA105-ERS) (protein) MATLSLTVNSGDPPLGALLAVEHVKDDVSISVEEGKENILHVSENVIFTDVNSILRYLARVATTAGLYGSNLMEHTEIDHWLEFSATKLSSCDSFTSTINELNHCLSLRTYLVGNSLSLADLCVWATLKGNAAWQEQLKQKKAPVHVKRWFGFLEAQQAFQSVGTKWDVSTTKARVAPEKKQDVGKFVELPGAEMGKVTVRFPPEASGYLHIGHAKAALLNQHYQVNFKGKLIMRFDDTNPEKEKEDFEKVILEDVAMLHIKPDQFTYTSDHFETIMKYAEKLIQEGKAYVDDTPAEQMKAEREQRIDSKHRKNPIEKNLQMWEEMKKGSQFGQSCCLRAKIDMSSNNGCMRDPTLYRCKIQPHPRTGNKYNVYPTYDFACPIVDSIEGVTHALRTTEYHDRDEQFYWIIEALGIRKPYIWEYSRLNLNNTVLSKRKLTWFVNEGLVDGWDDPRFPTVRGVLRRGMTVEGLKQFIAAQGSSRSVVNMEWDKIWAFNKKVIDPVAPRYVALLKKEVIPVNVPEAQEEMKEVAKHPKNPEVGLKPVWYSPKVFIEGADAETFSEGEMVTFINWGNLNITKIHKNADGKIISLDAKLNLENKDYKKTTKVTWLAETTHALPIPVICVTYEHLITKPVLGKDEDFKQYVNKNSKHEELMLGDPCLKDLKKGDIIQLQRRGFFICDQPYEPVSPYSCKEAPCVLIYIPDGHTKEMPTSGSKEKTKVEATKNETSAPFKERPTPSLNNNCTTSEDSLVLYNRVAVQGDVVRELKAKKAPKEDVDAAVKQLLSLKAEYKEKTGQEYKPGNPPAEIGQNISSNSSASILESKSLYDEVAAQGEVVRKLKAEKSPKAKINEAVECLLSLKAQYKEKTGKEYIPGQPPLSQSSDSSPTRNSEPAGLETPEAKVLFDKVASQGEVVRKLKTEKAPKDQVDIAVQELLQLKAQYKSLIGVEYKPVSATGAEDKDKKKKEKENKSEKQNKPQKQNDGQRKDPSKNQGGGLSSS	the WHEP-PRS fragment rather than ERS-WHEP fragment in the EPRS more contributed to the Snail1 stability	
Strep-tagged WHEP-PRS domain of EPRS (pEXPR-IBA105-PRS) (protein) VEATKNETSAPFKERPTPSLNNNCTTSEDSLVLYNRVAVQGDVVRELKAKKAPKEDVDAAVKQLLSLKAEYKEKTGQEYKPGNPPAEIGQNISSNSSASILESKSLYDEVAAQGEVVRKLKAEKSPKAKINEAVECLLSLKAQYKEKTGKEYIPGQPPLSQSSDSSPTRNSEPAGLETPEAKVLFDKVASQGEVVRKLKTEKAPKDQVDIAVQELLQLKAQYKSLIGVEYKPVSATGAEDKDKKKKEKENKSEKQNKPQKQNDGQRKDPSKNQGGGLSSSGAGEGQGPKKQTRLGLEAKKEENLADWYSQVITKSEMIEYHDISGCYILRPWAYAIWEAIKDFFDAEIKKLGVENCYFPMFVSQSALEKEKTHVADFAPEVAWVTRSGKTELAEPIAIRPTSETVMYPAYAKWVQSHRDLPIKLNQWCNVVRWEFKHPQPFLRTREFLWQEGHSAFATMEEAAEEVLQILDLYAQVYEELLAIPVVKGRKTEKEKFAGGDYTTTIEAFISASGRAIQGGTSHHLGQNFSKMFEIVFEDPKIPGEKQFAYQNSWGLTTRTIGVMTMVHGDNMGLVLPPRVACVQVVIIPCGITNALSEEDKEALIAKCNDYRRRLLSVNIRVRADLRDNYSPGWKFNHWELKGVPIRLEVGPRDMKSCQFVAVRRDTGEKLTVAENEAETKLQAILEDIQVTLFTRASEDLKTHMVVANTMEDFQKILDSGKIVQIPFCGEIDCEDWIKKTTARDQDLEPGAPSMGAKSLCIPFKPLCELQPGAKCVCGKNPAKYYTLFGRSY	the WHEP-PRS fragment rather than ERS-WHEP fragment in the EPRS more contributed to the Snail1 stability	
2× Strep-tagged EPRS (pEXPR-2×IBA105-EPRS) (protein) MATLSLTVNSGDPPLGALLAVEHVKDDVSISVEEGKENILHVSENVIFTDVNSILRYLARVATTAGLYGSNLMEHTEIDHWLEFSATKLSSCDSFTSTINELNHCLSLRTYLVGNSLSLADLCVWATLKGNAAWQEQLKQKKAPVHVKRWFGFLEAQQAFQSVGTKWDVSTTKARVAPEKKQDVGKFVELPGAEMGKVTVRFPPEASGYLHIGHAKAALLNQHYQVNFKGKLIMRFDDTNPEKEKEDFEKVILEDVAMLHIKPDQFTYTSDHFETIMKYAEKLIQEGKAYVDDTPAEQMKAEREQRIDSKHRKNPIEKNLQMWEEMKKGSQFGQSCCLRAKIDMSSNNGCMRDPTLYRCKIQPHPRTGNKYNVYPTYDFACPIVDSIEGVTHALRTTEYHDRDEQFYWIIEALGIRKPYIWEYSRLNLNNTVLSKRKLTWFVNEGLVDGWDDPRFPTVRGVLRRGMTVEGLKQFIAAQGSSRSVVNMEWDKIWAFNKKVIDPVAPRYVALLKKEVIPVNVPEAQEEMKEVAKHPKNPEVGLKPVWYSPKVFIEGADAETFSEGEMVTFINWGNLNITKIHKNADGKIISLDAKLNLENKDYKKTTKVTWLAETTHALPIPVICVTYEHLITKPVLGKDEDFKQYVNKNSKHEELMLGDPCLKDLKKGDIIQLQRRGFFICDQPYEPVSPYSCKEAPCVLIYIPDGHTKEMPTSGSKEKTKVEATKNETSAPFKERPTPSLNNNCTTSEDSLVLYNRVAVQGDVVRELKAKKAPKEDVDAAVKQLLSLKAEYKEKTGQEYKPGNPPAEIGQNISSNSSASILESKSLYDEVAAQGEVVRKLKAEKSPKAKINEAVECLLSLKAQYKEKTGKEYIPGQPPLSQSSDSSPTRNSEPAGLETPEAKVLFDKVASQGEVVRKLKTEKAPKDQVDIAVQELLQLKAQYKSLIGVEYKPVSATGAEDKDKKKKEKENKSEKQNKPQKQNDGQRKDPSKNQGGGLSSSGAGEGQGPKKQTRLGLEAKKEENLADWYSQVITKSEMIEYHDISGCYILRPWAYAIWEAIKDFFDAEIKKLGVENCYFPMFVSQSALEKEKTHVADFAPEVAWVTRSGKTELAEPIAIRPTSETVMYPAYAKWVQSHRDLPIKLNQWCNVVRWEFKHPQPFLRTREFLWQEGHSAFATMEEAAEEVLQILDLYAQVYEELLAIPVVKGRKTEKEKFAGGDYTTTIEAFISASGRAIQGGTSHHLGQNFSKMFEIVFEDPKIPGEKQFAYQNSWGLTTRTIGVMTMVHGDNMGLVLPPRVACVQVVIIPCGITNALSEEDKEALIAKCNDYRRRLLSVNIRVRADLRDNYSPGWKFNHWELKGVPIRLEVGPRDMKSCQFVAVRRDTGEKLTVAENEAETKLQAILEDIQVTLFTRASEDLKTHMVVANTMEDFQKILDSGKIVQIPFCGEIDCEDWIKKTTARDQDLEPGAPSMGAKSLCIPFKPLCELQPGAKCVCGKNPAKYYTLFGRSY		protein expression level of Snail1, anti-Flag immunoblot (HEK293T) [1]: the protein expression level of Snail1 increased more when overexpressed together with EPRS through co-transfection than when overexpressed alone
Flag-tagged EPRS (human Flag-tagged EPRS expression vector, Origene) (protein) MATLSLTVNSGDPPLGALLAVEHVKDDVSISVEEGKENILHVSENVIFTDVNSILRYLARVATTAGLYGSNLMEHTEIDHWLEFSATKLSSCDSFTSTINELNHCLSLRTYLVGNSLSLADLCVWATLKGNAAWQEQLKQKKAPVHVKRWFGFLEAQQAFQSVGTKWDVSTTKARVAPEKKQDVGKFVELPGAEMGKVTVRFPPEASGYLHIGHAKAALLNQHYQVNFKGKLIMRFDDTNPEKEKEDFEKVILEDVAMLHIKPDQFTYTSDHFETIMKYAEKLIQEGKAYVDDTPAEQMKAEREQRIDSKHRKNPIEKNLQMWEEMKKGSQFGQSCCLRAKIDMSSNNGCMRDPTLYRCKIQPHPRTGNKYNVYPTYDFACPIVDSIEGVTHALRTTEYHDRDEQFYWIIEALGIRKPYIWEYSRLNLNNTVLSKRKLTWFVNEGLVDGWDDPRFPTVRGVLRRGMTVEGLKQFIAAQGSSRSVVNMEWDKIWAFNKKVIDPVAPRYVALLKKEVIPVNVPEAQEEMKEVAKHPKNPEVGLKPVWYSPKVFIEGADAETFSEGEMVTFINWGNLNITKIHKNADGKIISLDAKLNLENKDYKKTTKVTWLAETTHALPIPVICVTYEHLITKPVLGKDEDFKQYVNKNSKHEELMLGDPCLKDLKKGDIIQLQRRGFFICDQPYEPVSPYSCKEAPCVLIYIPDGHTKEMPTSGSKEKTKVEATKNETSAPFKERPTPSLNNNCTTSEDSLVLYNRVAVQGDVVRELKAKKAPKEDVDAAVKQLLSLKAEYKEKTGQEYKPGNPPAEIGQNISSNSSASILESKSLYDEVAAQGEVVRKLKAEKSPKAKINEAVECLLSLKAQYKEKTGKEYIPGQPPLSQSSDSSPTRNSEPAGLETPEAKVLFDKVASQGEVVRKLKTEKAPKDQVDIAVQELLQLKAQYKSLIGVEYKPVSATGAEDKDKKKKEKENKSEKQNKPQKQNDGQRKDPSKNQGGGLSSSGAGEGQGPKKQTRLGLEAKKEENLADWYSQVITKSEMIEYHDISGCYILRPWAYAIWEAIKDFFDAEIKKLGVENCYFPMFVSQSALEKEKTHVADFAPEVAWVTRSGKTELAEPIAIRPTSETVMYPAYAKWVQSHRDLPIKLNQWCNVVRWEFKHPQPFLRTREFLWQEGHSAFATMEEAAEEVLQILDLYAQVYEELLAIPVVKGRKTEKEKFAGGDYTTTIEAFISASGRAIQGGTSHHLGQNFSKMFEIVFEDPKIPGEKQFAYQNSWGLTTRTIGVMTMVHGDNMGLVLPPRVACVQVVIIPCGITNALSEEDKEALIAKCNDYRRRLLSVNIRVRADLRDNYSPGWKFNHWELKGVPIRLEVGPRDMKSCQFVAVRRDTGEKLTVAENEAETKLQAILEDIQVTLFTRASEDLKTHMVVANTMEDFQKILDSGKIVQIPFCGEIDCEDWIKKTTARDQDLEPGAPSMGAKSLCIPFKPLCELQPGAKCVCGKNPAKYYTLFGRSY		ubiquitination of Snail1 (streptavidin pull-down, anti-HA immunoblot) [2]: the ubiquitination was reduced in the EPRS overexpressed experimental group
